Measured values published in patent US20240383982A1 (Genmab, published 2024).
Where a chain is given by its changes, count along the chain named. Numbers in names are those of the source.

Tests used:
[1] = target: T1, rat (Rattus norvegicus) B7H4, full length, on HEK-293F cells (rat, UniProt Q501W4 25-257); assay: flow cytometry, HEK-293F cells transfected with rat B7H4 [panel Rat B7H4]
T1 construct: Uniprot Q501W4; also called rat B7H4
T1 sequence: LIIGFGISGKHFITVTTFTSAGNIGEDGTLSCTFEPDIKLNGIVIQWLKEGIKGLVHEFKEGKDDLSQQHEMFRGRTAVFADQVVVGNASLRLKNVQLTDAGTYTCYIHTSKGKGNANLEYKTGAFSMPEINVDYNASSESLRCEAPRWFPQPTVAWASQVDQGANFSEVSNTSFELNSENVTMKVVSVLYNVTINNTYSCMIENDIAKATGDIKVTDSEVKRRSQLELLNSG
Description: (§1) Cells (3×10⁴ cells/well) were incubated in polystyrene 96-well round-bottom plates (Greiner bio-one, cat. no. 650180) with serial dilutions of antibodies (ranging from 0.000458 to 30 μg/mL in 4-fold dilution steps) in 100 μL PBS/0.1% BSA/0.02% azide (staining buffer) at 4° C. for 30 min. Experiments were performed in technical duplicate. After washing twice in staining buffer, cells were incubated in 50 μL secondary antibody at 4° C. for 30 min. As a secondary antibody, R-Phycoerythrin (PE)-conjugated goat-anti-human IgG F(ab′)₂ (1:500 in FACS buffer; Jackson ImmunoResearch Laboratories, Inc., West Grove, PA, cat. no. 109-116-098), was used. Cells were washed twice in staining buffer, re-suspended in 30 μL FACS buffer containing Topro-3 (1:10,000 dilution) and analyzed on an iQue Screener (Intellicyt Corporation, USA). Binding curves were analyzed using non-linear regression (sigmoidal dose-response with variable slope) using GraphPad Prism V7.02 software (GraphPad Software, San Diego, CA, USA).

[2] = target: T2, human B7H4, full length, on cells (human, UniProt Q7Z7D3 25-282); assay: flow cytometry on NIH-OVCAR-3 tumor cells [panel NIH-Ovcar-3 cells]
T2 construct: Uniprot Q7Z7D3; Used for transfected HEK cells and for the B7H4-expressing human tumor cell lines (endogenous B7H4); also called VTCN1
T2 sequence: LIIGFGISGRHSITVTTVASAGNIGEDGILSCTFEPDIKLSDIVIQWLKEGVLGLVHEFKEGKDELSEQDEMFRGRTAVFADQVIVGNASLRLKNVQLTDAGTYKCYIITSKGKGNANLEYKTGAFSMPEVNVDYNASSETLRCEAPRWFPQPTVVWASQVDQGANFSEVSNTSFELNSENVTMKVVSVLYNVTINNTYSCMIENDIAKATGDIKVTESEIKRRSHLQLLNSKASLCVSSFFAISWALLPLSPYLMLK
Description: as §1
(§2) Binding was analyzed by flow cytometry as described above.

B7H3-IgV/B7H4-IgC = target: T3, B7H3-IgV/B7H4-IgC; assay: flow cytometry, HEK cells transiently transfected with B7H3-IgV/B7H4-IgC, PE anti-human IgG F(ab')2 [panel B7H3-IgV/B7H4-IgC]
T3 construct: also called chimeric molecule with the IgV domain of B7H3 and the IgC domain of B7H4
T3 full-length chimeric protein on cells: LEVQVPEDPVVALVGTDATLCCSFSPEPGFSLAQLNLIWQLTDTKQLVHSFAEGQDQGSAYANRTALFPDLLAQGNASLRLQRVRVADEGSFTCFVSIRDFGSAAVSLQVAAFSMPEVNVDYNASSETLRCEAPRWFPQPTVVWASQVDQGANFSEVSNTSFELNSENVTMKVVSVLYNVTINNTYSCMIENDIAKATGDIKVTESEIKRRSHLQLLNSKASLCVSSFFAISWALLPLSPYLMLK
Description: After washing twice in FACS buffer, cells were incubated with secondary antibody at 4° C. for 30 min. […] Next, cells were washed twice in FACS buffer, re-suspended in 20 μL FACS buffer and analyzed on an iQue Screener (Intellicyt Corporation, USA).
Further experiments were conducted to study the B7H4 domain specificity of the B7H4 antibodies in more detail, by analysis of full dose-response curves.

[3] = target: T4, pig (Sus scrofa) B7H4, full length, on HEK-293F cells (pig, UniProt Q7Z7D3 26-282 (human entry)); assay: flow cytometry, HEK-293F cells transiently transfected with pig B7H4 [panel Pig B7H4]
T4 construct: Uniprot F1SAY4; also called pig B7H4
T4 chain: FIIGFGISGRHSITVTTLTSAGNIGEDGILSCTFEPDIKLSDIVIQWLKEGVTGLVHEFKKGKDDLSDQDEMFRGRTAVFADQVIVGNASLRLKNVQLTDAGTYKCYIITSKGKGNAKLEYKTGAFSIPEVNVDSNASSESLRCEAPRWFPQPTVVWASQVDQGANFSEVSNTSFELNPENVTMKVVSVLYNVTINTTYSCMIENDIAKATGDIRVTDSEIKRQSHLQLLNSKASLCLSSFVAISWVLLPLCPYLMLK
Description: as §1

[4] = target: T2, human B7H4, full length, on cells; assay: flow cytometry on HCC1954 tumor cells [HCC1954 right panel]
Description: as §1, §2

[5] = target: T5, mouse (Mus musculus) B7H4, full length, on HEK-293F cells (mouse, UniProt Q7TSP5 25-257); assay: flow cytometry, HEK-293F cells transfected with mouse B7H4 [panel Mouse B7H4]
T5 construct: Uniprot Q7TSP5; also called mouse B7H4
T5 sequence: T1 sequence with H109R, E228Q
Description: as §1

B1: IgG1-B7H4-C5-FEAR (antibody, V domains shown)
VH: QLQLQESGPGLVKPSETLSLTCTVSGGSIKSGSYYWGWIRQPPGKGLEWIGNIYYSGSTYYNPSLRSRVTISVDTSKNQFSLKLSSVTAADTAVYYCAREGSYPNQFDPWGQGTLVTVSS
VL: EIVMTQSPATLSVSPGERATLSCRASQSVSSNLAWYQQKPGQAPRLLIYGASTRATGIPARFSGSGSGTEFTLTISSLQSEDFAVYYCQQYHSFPFTFGGGTKVEIKR
notes: Full length IgG1 FEAR, kappa; variable domains from US20190085080A1
[1]
  binding result: binds

B2: bsIgG1-huCD3-H101G-FEALxB7H4-C1-N52S-FEAR (bispecific antibody)
heavy 1: not shown
light 1: not shown
heavy 2: QVQLQQWGAGLLKPSETLSLTCAVYGGSFSGYYWSWIRQPPGKGLEWIGEISHSGSTNYNPSLKSRVTISIDTSKNQFSLKLTSVTAADTAVFYCARGLFNWNFDSWGQGTLVTVSSASTKGPSVFPLAPSSKSTSGGTAALGCLVKDYFPEPVTVSWNSGALTSGVHTFPAVLQSSGLYSLSSVVTVPSSSLGTQTYICNVNHKPSNTKVDKRVEPKSCDKTHTCPPCPAPEFEGGPSVFLFPPKPKDTLMISRTPEVTCVVVAVSHEDPEVKFNWYVDGVEVHNAKTKPREEQYNSTYRVVSVLTVLHQDWLNGKEYKCKVSNKALPAPIEKTISKAKGQPREPQVYTLPPSREEMTKNQVSLTCLVKGFYPSDIAVEWESNGQPENNYKTTPPVLDSDGSFFLYSRLTVDKSRWQQGNVFSCSVMHEALHNHYTQKSLSLSPGK
light 2: DIQMTQSPSSLSASVGDRVTITCRASQGIRNDLGWYQQKPGKAPKRLIYGASSLQSGVPSRFSGSGSGTEFTLTISSLQPEDFATYYCLQHNSYPRTFGQGTTVEIKRTVAAPSVFIFPPSDEQLKSGTASVVCLLNNFYPREAKVQWKVDNALQSGNSQESVTEQDSKDSTYSLSSTLTLSKADYEKHKVYACEVTHQGLSSPVTKSFNRGEC
notes: also called bslgG1-huCD3-H101G-FEALxB7H4-C1-N52S-FEAR; BslgG1-huCD3-H101G-FEALxB7H4-C1-N52S-FEAR
[2]
  EC50 (read off the curve): ~2 µg/mL
B7H3-IgV/B7H4-IgC
  binding result: binds
[3]
  binding result: no binding (tested: 30 µg/ml)
[4]
  EC50 (read off the curve): ~1 µg/mL

B3: IgG1-B7H4-C1-N52S-FEAR (antibody, V domains shown)
VH: QVQLQQWGAGLLKPSETLSLTCAVYGGSFSGYYWSWIRQPPGKGLEWIGEISHSGSTNYNPSLKSRVTISIDTSKNQFSLKLTSVTAADTAVFYCARGLFNWNFDSWGQGTLVTVSS
VL: DIQMTQSPSSLSASVGDRVTITCRASQGIRNDLGWYQQKPGKAPKRLIYGASSLQSGVPSRFSGSGSGTEFTLTISSLQPEDFATYYCLQHNSYPRTFGQGTTVEIKR
notes: Full length human IgG1 with L234F, L235E, D265A, K409R (FEAR) heavy chain constant region and kappa light chain; bivalent, monospecific; also called IgG1-B7H4-C1-052S-FEAR
[5]
  EC50 (read off the curve): ~0.3 µg/mL
